Molecular target: Histone H3 trimethylated at lysine 27 (H3K27me3), nucleosomal, in human ES cells

Row | Protein | H3K27me3 level after doxycycline-induced expression in JMJD3c-hESCs | H3K27me3 level by immunostaining and immunoblotting, 8 hours after introduction of synthetic mRNA into hESCs
1 | HA-tagged JMJD3c (catalytic domain-containing C-terminus of JMJD3) (protein) QSEEIQGREKSRPDLGGASKAKPPTAPAPPSAPAPSAQPTPPSASVPGKKAREEAPGPPGVSRADMLKLRSLSEGPPKELKIRLIKVESGDKETFIASEVEERRLRMADLTISHCAADVVRASRNAKVKGKFRESYLSPAQSVKPKINTEEKLPREKLNPPTPSIYLESKRDAFSPVLLQFCTDPRNPITVIRGLAGSLRLNLGLFSTKTLVEASGEHTVEVRTQVQQPSDENWDLTGTRQIWPCESSRSHTTIAKYAQYQASSFQESLQEEKESEDEESEEPDSTTGTPPSSAPDPKNHHIIKFGTNIDLSDAKRWKPQLQELLKLPAFMRVTSTGNMLSHVGHTILGMNTVQLYMKVPGSRTPGHQENNNFCSVNINIGPGDCEWFAVHEHYWETISAFCDRHGVDYLTGSWWPILDDLYASNIPVYRFVQRPGDLVWINAGTVHWVQATGWCNNIAWNVGPLTAYQYQLALERYEWNEVKNVKSIVPMIHVSWNVARTVKISDPDLFKMIKFCLLQSMKHCQVQRESLVRAGKKIAYQGRVKDEPAYYCNECDVEVFNILFVTSENGSRNTYLVHCEGCARRRSAGLQGVVVLEQYRTEELAQAYDAFTLVRARRARGQRRRALGQAAGTGFGSPAAPFPEPPPAFSPQAPASTSR | Dox treatment (1 µg/ml) induced HA-JMJD3c expression and a significant decrease in H3K27me3 in all hESCs | the introduction of the JMJD3c mRNA induced a more significant decrease in H3K27me3 as compared to the JMJD3f mRNA
2 | HA-tagged full-length JMJD3 (protein) MHRAVDPPGARAAREAFALGGLSCAGAWSSCPPHPPPRSAWLPGGRCSASIGQPPLPAPLPPSHGSSSGHPSKPYYAPGAPTPRPLHGKLESLHGCVQALLREPAQPGLWEQLGQLYESEHDSEEATRCYHSALRYGGSFAELGPRIGRLQQAQLWNFHTGSCQHRAKVLPPLEQVWNLLHLEHKRNYGAKRGGPPVKRAAEPPVVQPVPPAALSGPSGEEGLSPGGKRRRGCNSEQTGLPPGLPLPPPPLPPPPPPPPPPPPPLPGLATSPPFQLTKPGLWSTLHGDAWGPERKGSAPPERQEQRHSLPHPYPYPAPAYTAHPPGHRLVPAAPPGPGPRPPGAESHGCLPATRPPGSDLRESRVQRSRMDSSVSPAATTACVPYAPSRPPGLPGTTTSSSSSSSSNTGLRGVEPNPGIPGADHYQTPALEVSHHGRLGPSAHSSRKPFLGAPAATPHLSLPPGPSSPPPPPCPRLLRPPPPPAWLKGPACRAAREDGEILEELFFGTEGPPRPAPPPLPHREGFLGPPASRFSVGTQDSHTPPTPPTPTTSSSNSNSGSHSSSPAGPVSFPPPPYLARSIDPLPRPPSPAQNPQDPPLVPLTLALPPAPPSSCHQNTSGSFRRPESPRPRVSFPKTPEVGPGPPPGPLSKAPQPVPPGVGELPARGPRLFDFPPTPLEDQFEEPAEFKILPDGLANIMKMLDESIRKEEEQQQHEAGVAPQPPLKEPFASLQSPFPTDTAPTTTAPAVAVTTTTTTTTTTTATQEEEKKPPPALPPPPPLAKFPPPSQPQPPPPPPPSPASLLKSLASVLEGQKYCYRGTGAAVSTRPGPLPTTQYSPGPPSGATALPPTSAAPSAQGSPQPSASSSSQFSTSGGPWARERRAGEEPVPGPMTPTQPPPPLSLPPARSESEVLEEISRACETLVERVGRSATDPADPVDTAEPADSGTERLLPPAQAKEEAGGVAAVSGSCKRRQKEHQKEHRRHRRACKDSVGRRPREGRAKAKAKVPKEKSRRVLGNLDLQSEEIQGREKSRPDLGGASKAKPPTAPAPPSAPAPSAQPTPPSASVPGKKAREEAPGPPGVSRADMLKLRSLSEGPPKELKIRLIKVESGDKETFIASEVEERRLRMADLTISHCAADVVRASRNAKVKGKFRESYLSPAQSVKPKINTEEKLPREKLNPPTPSIYLESKRDAFSPVLLQFCTDPRNPITVIRGLAGSLRLNLGLFSTKTLVEASGEHTVEVRTQVQQPSDENWDLTGTRQIWPCESSRSHTTIAKYAQYQASSFQESLQEEKESEDEESEEPDSTTGTPPSSAPDPKNHHIIKFGTNIDLSDAKRWKPQLQELLKLPAFMRVTSTGNMLSHVGHTILGMNTVQLYMKVPGSRTPGHQENNNFCSVNINIGPGDCEWFAVHEHYWETISAFCDRHGVDYLTGSWWPILDDLYASNIPVYRFVQRPGDLVWINAGTVHWVQATGWCNNIAWNVGPLTAYQYQLALERYEWNEVKNVKSIVPMIHVSWNVARTVKISDPDLFKMIKFCLLQSMKHCQVQRESLVRAGKKIAYQGRVKDEPAYYCNECDVEVFNILFVTSENGSRNTYLVHCEGCARRRSAGLQGVVVLEQYRTEELAQAYDAFTLVRARRARGQRRRALGQAAGTGFGSPAAPFPEPPPAFSPQAPASTSR | – | the introduction of the JMJD3c mRNA induced a more significant decrease in H3K27me3 as compared to the JMJD3f mRNA

Source: patent US20200048612
